This test deals with T1, GFP-rev-p53 biosensor.
T1 construct: also called rev-p53-GFP; NLS-p53-GFP construct
Nature of the test: co-localization of fluorescent biosensor components co-expressed in U2OS cells.

B1: TagGFP-NES/NLS-HDM2 biosensor (other)
chain: MVSKGEELIKENMHMKLYMEGTVNNHHFKCTSEGEGKPYEGTQTMRIKVVEGGPLPFAFDILATSFMYGSRTFINHTQGIPDFFKQSFPEGFTWERVTTYEDGGVLTATQDTSLQDGCLIYNVKIRGVNFPSNGPVMQKKTLGWEANTEMLYPADGGLEGRSDMALKLVGGGHLICNFKTTYRSKKPAKNLKMPGVYYVDHRLERIKEADKETYVEQHEVAVARYCDLPSKLGHKLNSGLRSRAQASNSPQTPLHTSRVLKEDKERWEDVKEEMTSALATMCVDYEQIKIKKIEDASNPLLLKRRKKLEMCNTNMSVPTDGAVTTSQIPASEQETLVRPKPLLLKLLKSVGAQKDTYTMKEVLFYLGQYIMTKRLYDEKQQHIVYCSNDLLGDLFGVPSFSVKEHRKIYTMIYRNLVVVNQQESSDS
notes: also called NES/NLS-HDM2-RFP; shuttling component
Regarding B1, the binding result is listed as “binds”.

(Values after patent US20100112602A1 (published 2010).)
